Test results published in patent US20250327081, “TDP-43-BINDING SINGLE-STRANDED APTAMERS AND USES THEREOF” (FONDAZIONE ISTITUTO ITALIANO DI TECNOLOGIA, published 2025).

Experiments:
[1] = biological target: T1, TDP-43 construct (RRM1-2) (UniProt Q13148 Q13148:104-262); assay: BLI; 10 mM K phosphate pH 7.2, 150 mM KCl, 0.01% Tween20, 25 C; conditions: label: 3'-biotin
[2] = biological target: T1, TDP-43 construct (RRM1-2); assay: as above
Protocol: (§1) The binding assays were performed in 10 mM potassium phosphate buffer (pH 7.2) with 150 mM KCl and 0.01% Tween20. Streptavidin-coated biosensors were loaded with 1 μg/ml RNA aptamer modified with biotin on the 3′end and exposed to increasing protein concentrations varying from 20 nM to 20 μM, according to the strength of the binding. Kd values were estimated by fitting the response intensity (shift in the wavelength upon binding) as a function of the protein concentration, at the steady state. The assay was repeated at least 3 times, each time in triplicate. The reported binding curves are examples of the output of one experiment.
The inventors verified whether Apt-14 preserves the ability to bind tightly to TDP-43. Bio-layer interferometry was used to determine the dissociation constant of the interaction between Apt-14 and the TDP-43 construct. This experiment was carried out with the same buffer and the same conditions employed for the experiment carried out with Apt-1.

[3] = biological target: T1, TDP-43 construct (RRM1-2); assay: BLI; 10 mM K phosphate pH 7.2, 150 mM KCl, 0.01% Tween20, 25 C; about 90 nM in Example 7; conditions: label: 3'-biotin (BLI)
Protocol: In this study, the inventors calculated the predicted interaction propensities between the RNA aptamers of Table 1 and TDP-43 and validated the predicted interaction propensities by comparing them with the experimentally measured Kd (dissociation constant) values. To this end, the Kd between each of Apt-1, Apt-2, Apt-3, Apt-11, Apt-12 or Apt-13 and the two RNA recognition motifs of TDP-43 (RRM1-2) was determined by means of biolayer interferometry, a label-free technology to study biomolecular interactions. Importantly, RRM1-2 represents the minimal region necessary for RNA-binding with high affinity (Lukavsky et al., 2013) purifiable as a monomer under near-to-physiological conditions and in suitable quantities (Zacco et al., 2018).
as §1

[4] = biological target: T1, TDP-43 construct (RRM1-2); assay: BLI

T1 sequence (Q13148 104-262, one chain of several): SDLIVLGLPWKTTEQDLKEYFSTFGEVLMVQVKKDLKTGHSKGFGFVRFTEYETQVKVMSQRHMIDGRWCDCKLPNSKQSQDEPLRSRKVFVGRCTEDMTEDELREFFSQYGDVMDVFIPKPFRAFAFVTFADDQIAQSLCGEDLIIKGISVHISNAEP

Row | Binder | Kd [1] | other results
1 | GCGGGGCCCG (ssRNA) [Apt-6] | 1600 nM | –
2 | GGGGUGGGGC (ssRNA) [Apt-4] | 1300 nM | –
3 | GUGGUCCCCG (ssRNA) [Apt-2] | 750 nM | –
4 | CGCUGUGGUC (ssRNA) [Apt-3] | 650 nM | –
5 | CGGTGTTGCT (ssDNA) [Apt-14 (DNA version of Apt-1)] | – | Kd [2]: ~76 nM
6 | CGAGGCCGGG (ssRNA) [Apt-5] | 1500 nM | –
7 | CGGUGUUGCU (ssRNA) [Apt-1] | – | Kd [3]: 100 nM
8 | GCUGGGGUGGGGCGGAUCGGUGUUG (ssRNA) [Apt-1 (25 nt)] | – | Kd [4]: ~750 nM
